System: peptide library, one residue held at a place counted from the S/T acceptor
Assay: relative phosphorylation of the sub-library (ratio to the mean residue at this position); higher = residue favoured
Settings: human
How it was run: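 Each biotinylated degenerate peptide sub-library fixed one residue at one position around a central Ser/Thr and was incubated with a purified recombinant kinase, a human or orthologue construct, in 384-well plates. The 90 min reactions, under kinase-specific conditions, contained 50 μM peptide and 50 μM ATP spiked with γ-32P-ATP. Phosphorylation was read by phosphorimaging spots on streptavidin membranes and quantifying them by densitometry. Relative sub-library phosphorylation expresses each value as a ratio to the mean residue at that position.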

MARK1, construct: Full length, sequence (Q9P0L2 whole entry, looked up): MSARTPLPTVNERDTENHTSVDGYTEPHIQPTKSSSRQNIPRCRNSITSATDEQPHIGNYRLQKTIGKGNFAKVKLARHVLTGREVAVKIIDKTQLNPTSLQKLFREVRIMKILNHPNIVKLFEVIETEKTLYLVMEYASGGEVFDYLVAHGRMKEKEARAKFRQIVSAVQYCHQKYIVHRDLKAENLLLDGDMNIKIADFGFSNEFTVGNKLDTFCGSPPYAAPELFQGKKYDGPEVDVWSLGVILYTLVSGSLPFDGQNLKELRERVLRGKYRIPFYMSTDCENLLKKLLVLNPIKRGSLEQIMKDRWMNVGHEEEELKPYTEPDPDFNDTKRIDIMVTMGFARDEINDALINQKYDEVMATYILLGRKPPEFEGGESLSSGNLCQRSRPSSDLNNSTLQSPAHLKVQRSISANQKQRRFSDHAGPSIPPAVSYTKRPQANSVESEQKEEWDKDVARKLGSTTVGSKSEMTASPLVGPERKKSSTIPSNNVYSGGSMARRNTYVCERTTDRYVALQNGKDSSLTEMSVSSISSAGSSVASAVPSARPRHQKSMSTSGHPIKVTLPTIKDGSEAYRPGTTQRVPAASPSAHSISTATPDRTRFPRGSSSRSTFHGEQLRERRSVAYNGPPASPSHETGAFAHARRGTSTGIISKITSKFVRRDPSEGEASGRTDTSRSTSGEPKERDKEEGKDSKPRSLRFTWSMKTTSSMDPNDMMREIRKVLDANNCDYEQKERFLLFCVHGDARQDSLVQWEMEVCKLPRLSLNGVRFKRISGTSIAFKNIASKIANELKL
STK3, construct: Full length, sequence (Q13188 whole entry, looked up): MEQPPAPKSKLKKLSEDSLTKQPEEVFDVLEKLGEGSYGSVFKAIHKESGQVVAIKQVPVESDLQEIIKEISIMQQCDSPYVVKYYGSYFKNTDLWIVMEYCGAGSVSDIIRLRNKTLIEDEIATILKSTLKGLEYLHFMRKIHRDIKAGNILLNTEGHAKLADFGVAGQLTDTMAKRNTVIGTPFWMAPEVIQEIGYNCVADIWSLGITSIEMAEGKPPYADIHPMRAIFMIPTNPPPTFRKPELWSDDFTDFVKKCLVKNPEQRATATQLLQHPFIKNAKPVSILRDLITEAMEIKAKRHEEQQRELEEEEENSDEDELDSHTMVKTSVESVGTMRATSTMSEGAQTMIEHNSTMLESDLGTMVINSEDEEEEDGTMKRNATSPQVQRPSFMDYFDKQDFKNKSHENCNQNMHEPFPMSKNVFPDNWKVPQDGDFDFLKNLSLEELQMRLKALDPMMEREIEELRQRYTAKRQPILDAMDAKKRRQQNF

STK3, construct: Full length (from UniProt Q13188)
relative phosphorylation
Settings	at +1	at +2	at +3	at +4	at -1	at -2	at -3	at -4	at -5
A fixed	0.661	0.581	0.858	1.04	0.779	0.875	0.933	0.913	1.03
D fixed	0.346	0.503	0.732	0.903	2.13	1.3	1.5	1.32	1.46
E fixed	0.48	0.55	0.651	0.554	1.02	1.19	1.39	1.42	1.2
F fixed	0.902	0.508	0.855	0.762	0.651	1.64	0.919	1.07	0.976
G fixed	0.728	0.737	1.14	1.45	1.3	0.916	1.15	1.01	0.989
H fixed	0.58	1.48	1.11	1.13	1.13	1.18	0.957	1.07	1.15
I fixed	1.92	0.532	0.872	0.747	0.346	0.457	0.461	0.501	0.601
K fixed	0.419	2.81	1.41	1.26	1.17	0.444	0.517	0.821	0.784
L fixed	2.37	0.687	1.05	0.951	0.917	0.511	0.601	0.598	0.821
M fixed	2.76	0.687	0.886	1.02	0.823	0.877	0.727	0.789	0.817
N fixed	0.589	1.64	1.12	1.09	1.74	1.32	1.21	1.17	1.1
P fixed	0.26	0.733	1.1	1.18	0.706	0.555	1.08	0.926	1.23
Q fixed	0.761	1.28	1.06	1.24	1.26	0.953	1.15	1.32	1.06
R fixed	0.479	2.35	1.45	0.852	0.783	0.472	0.602	0.881	0.704
V fixed	1.09	0.747	0.827	0.871	0.511	0.514	0.64	0.809	0.89
W fixed	1.87	0.549	0.925	1.11	0.819	1.63	1.78	1.12	1.15
Y fixed	0.792	0.626	0.953	0.841	0.909	2.17	1.4	1.26	1.03
pThr fixed	1.04	1.05	0.9	0.916	0.849	1.04	1.18	1.08	1.06
pTyr fixed	0.632	0.544	0.771	0.75	0.599	1.56	1.26	1.2	1.24

MARK1, construct: Full length (from UniProt Q9P0L2)
relative phosphorylation
Settings	at +1	at +2	at +3	at +4	at -1	at -2	at -3	at -4	at -5
A fixed	0.647	0.684	0.599	0.352	1.02	1.84	0.723	0.974	0.972
D fixed	0.508	0.722	3.18	0.56	0.625	0.335	0.358	0.782	0.715
E fixed	0.778	1.09	0.947	0.373	0.616	0.261	0.408	0.696	0.695
F fixed	0.81	0.764	0.898	0.713	0.635	1.48	0.885	1.05	1.18
G fixed	0.497	0.392	0.379	0.421	2.38	0.96	0.556	1.07	0.906
H fixed	0.787	1.08	1.44	0.589	0.783	1.35	1.36	1.25	0.858
I fixed	1.2	0.885	0.565	2.73	0.557	0.503	0.555	0.654	0.974
K fixed	0.837	0.57	0.587	0.483	1.72	0.994	2.18	1.38	1.26
L fixed	1.42	1.13	0.877	4.86	0.751	0.491	0.642	0.747	1.51
M fixed	2.28	1.12	0.774	1.4	0.963	0.76	0.883	0.967	1.27
N fixed	0.949	0.968	2.63	0.679	1.1	0.576	0.571	0.865	0.739
P fixed	0.28	0.59	0.171	0.382	1.13	0.428	0.716	0.856	0.775
Q fixed	1.76	1.04	0.911	0.615	1.16	0.569	0.7	0.805	0.862
R fixed	1.14	0.69	0.476	0.384	1.41	1.08	3.66	1.75	1.48
V fixed	1.36	0.879	0.487	1.28	0.75	0.676	0.525	0.798	0.903
W fixed	0.847	3.44	1.03	0.626	0.636	3.1	1.39	1.26	1.02
Y fixed	0.903	0.958	1.05	0.555	0.766	1.6	0.884	1.09	0.877
pThr fixed	1.58	1.08	0.457	0.348	0.378	0.43	0.445	0.692	0.614
pTyr fixed	0.712	0.641	0.828	0.368	0.881	0.508	0.543	0.659	0.758

From the supplement of paper PMC9876800
